From the supplement of paper PMC12042874
± gives the uncertainty stated by the source.

Test: amyloid nucleation score (Sup35N fusion, yeast selection) (log enrichment); library NNK3; higher = more nucleation; inactive = no reads after selection
Summary of the method: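 Sup35N fusions to peptides of 20 random codons were expressed in psi-negative yeast, induced 24 hours with 100 μM copper sulfate, and grown 7 days at 30°C on medium lacking adenine and uracil. Input and output plasmid inserts were sequenced by Illumina. The nucleation score is the DiMSum log enrichment of output over input reads, centred on the mode score of non-aggregating sequences. Sequences with under 100 input reads were excluded.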

Substance | amyloid nucleation score
NVILYGKNLS | inactive
WYYCRLRACVRH | inactive
PQASVDQFLYFPIWTYLGIN | inactive
KRWGEPYRMIVGYMVRYMVT | 2 ± 0.089
GFGFP | inactive
YNCFTHSPWRKH | inactive
AHDRIFWNGPYNRISYAAFR | inactive
SAWSTECYVMCSM | inactive
VNTFVFTGFCMYSFVMSWLN | 0.525 ± 0.2
DIKVMNLCLNWFFRLIHGV | inactive
FGFYKWPTTCLGSVSSLSSM | 0.749 ± 0.11
GNRLALVYLGRILPL | inactive
VHCHV | -0.536 ± 0.93
FALLMCDSHRSCNNVNNFVH | inactive
HPMRGDVGSRAVFRMGHFIH | inactive
ILGKRC | inactive
SSSKNACDPC | inactive
FCTFSLRHYVTKNGPVCPTK | inactive
YIARCVVTSLVLNKTCMRIY | inactive
YWLRVIKRHRDRHR | inactive
GYYANGISRPVILLMFWRVR | inactive
REVGDQMIDLSRSYVQSTVG | inactive
PSYNCFTKFVADQTVTLRFS | inactive

Substance | amyloid nucleation score
SACEMWATRHKNWRASGYNH | inactive
CVSGASKVNWGSCY | inactive
VVVCNRIVNSSEFRCSYTRK | 1.73 ± 0.09
GPNLLWDRGGPVNSCASKEA | inactive
FIWIT | inactive
KHFLQVVRSSNRTVSARFPL | inactive
TRWQRCSAIPPVGEA | inactive
FFHFSNVCTWVPDYSETSPS | inactive
TVYEA | inactive
FRSEVGVNFNRTLWRYNRVY | inactive
INSWIPWWLERKWSWHLASI | inactive
VRACNRLVYRFGDTVISDKR | inactive
LWEDNVWVLKR | -0.1 ± 0.19
VIIICQLHCYTKTMIIRHRC | 0.118 ± 0.3
VSKVMSEMIYVGIYICKCCL | 1.39 ± 0.11
PFLYGRYFVAISNS | inactive
YFLRREQLYNLRKGK | inactive
STYAPWSMHHFLDLYMSNRS | inactive
NFGLFREVGLFIRLWIANAA | inactive
TKAYGCIHTDRRDSQLKFSA | inactive
CWDYWACGQGTA | inactive
KSRERFLCSKGMSPQQTHMY | inactive
YRVSEELTLLY | inactive

Substance | amyloid nucleation score
RLVAFGRRWDESSKVECMWS | inactive
SSYYFFCDGLIFELLSQDNS | inactive
HSWFFGFIFWLLNDHSIHYG | inactive
LLNYFRLMCYRSFL | inactive
LFFYFLEPR | inactive
YLLFMYFLLSSCCSLPALPM | 1.4 ± 0.12
RYYDLVSGSWWIYFG | inactive
ETYHCIV | inactive
MRRYIRNIKAHMCVIVRVYL | inactive
VYDVSQVGLSRSSFFGAVQA | inactive
SFLFA | inactive
QMSCNQRNISMGFKIGRFYM | 1.5 ± 0.061
LIRMFISVMSYCMTVGLGMG | inactive
LIHFV | inactive
IVMIVNTGIA | inactive
RSCLCEWWDVGSSVSASTLL | inactive
QRMTNFLLGRVSV | inactive
SVIASRSLIYD | inactive
AWGYYPSLCGKEDVYSWGWG | inactive
FPYNGALSFCIWYRVASRVY | inactive
NFKNMEWFLST | inactive
WFVQLSRMWFYANGNCPV | inactive
DWSPLAGRRMTSAVDGVSMD | inactive

Substance | amyloid nucleation score
WNNRWVCNLSTSSGMNLLDR | inactive
CNYFVF | inactive
FISHSCYGWILRGCQTVGFW | -0.552 ± 0.98
IDRHAPSEESVPFWSYWNNG | inactive
LSSHS | inactive
GLPSFRHSF | inactive
NMVISYGVWYCDRKD | 0.84 ± 0.2
AAPKGGYPVLCCSVRTGRN | 0.804 ± 0.13
RGKNVAWWVTSSTKSYSAK | 0.304 ± 0.23
HMCRTSCDRFGAIPNFMHWS | inactive
QFIWRLLRDSTKNFTLLSYK | inactive
DLVEVIYSVTSYYPNYLRAK | inactive
YMLMGMVLRDRDRT | 1.69 ± 0.088
AIFTFVPLSPTRTHGWDHCR | inactive
FMTSEWRMGMYGVSGRITWE | 0.73 ± 0.24
YITVRR | -0.297 ± 1.1
WPKLVGCYRGSKGINGRVLY | inactive
IRFQSYRLASSSLVCDCVFC | 0.627 ± 0.31
ISMSVYFFTIISSQFMFPIR | inactive
SVGGEWRS | 1.34 ± 0.14
SKRVIVWVTSLYWDV | inactive
ATCRRFTLVQPSYLVPCEPY | inactive
VCGILRIIILGLMYVEALGW | inactive

Substance | amyloid nucleation score
WINGTISDC | inactive
MPWMVATSNM | inactive
LNYVCCCIQSPPEFNIS | 3.36 ± 0.07
MGQRLLLVSANAWD | inactive
VFSIND | inactive
VMGVPST | inactive
CNPQTFSFVLMVRLCSKSGV | inactive
MKLDICWLRLSRCYVVVVWV | inactive
YDGLSSAMGEHIRNNNCLLV | inactive
KGFSFLRIRRMGLWTVSGYG | inactive
ECTLGCTSDWGNLKARHGVR | inactive
CSTCISTNFSPY | inactive
SCRIMSRYGAQIWCDPTYQA | inactive
CLFWMTWDVSRDS | inactive
FYCGIWAYVEDCC | 2.53 ± 0.057
GRYLSANLVVKSGCR | inactive
VHSCEMSSPPTILKVKLVYL | inactive
NLMEYSAC | 0.182 ± 0.28
WRGYPFAPVFYLI | inactive
WVDGYFNLTENVPAVVGK | inactive
GLFMRFTRWCRGKHVTMVP | inactive
LIFFRVVSQLFKFSLRDLPL | inactive
SGIVLESLLISRFFKGFHRD | 0.926 ± 0.25

Substance | amyloid nucleation score
DSVFNL | inactive
SFITTCIYRNVSVFCDHSAE | inactive
WGGSVRYKVSRICLGQCERE | inactive
HWFLYLPFSPYCIPRIPDYL | inactive
SRKLCSHR | -0.557 ± 0.66
LRSDMLVVPRIFFACFWSIK | inactive
SMLAPCHELEHMGRCGECSN | inactive
HWPCLNSYEAIVFFCGMDSH | inactive
SRWATGWTTIISYMEPWFRA | inactive
NLSSCIFVVS | inactive
MRVLGLGEAWDDNGLRRLRA | inactive
TLDFGF | inactive
DRDSALWIMTVWVRGSHYTR | inactive
DSIFSWSFRGFSCVN | inactive
HWILSTPCLNVV | inactive
SLRVLWCIRLKCSCLCWISG | inactive
SCAECDMRWHMGGCICFVLG | inactive
INWAKHDWGFNYFSCSICWV | 1.39 ± 0.079
WSPWHENWGLGMLQLKTSLW | inactive
GCNDSSARLS | inactive
IMCANSEVVKCYCNRTKLEL | 1.08 ± 0.14
TIGDACFVGKEAWAFANWEY | inactive
GIRCSLVY | inactive

Substance | amyloid nucleation score
MSFRIAKDIMCLVGFSLRCT | inactive
NRLNGSLILDRHLL | inactive
GVTQVIWVAYNILFLNNCWM | inactive
SKSYVEF | inactive
NLKILPAVDHCSDHPMERNE | inactive
FRYRNSSTEVCWKRSWLTLG | inactive
FFVNYHVGIFMSIYQIFVYV | inactive
SGLYMCRISFSPLIVMIVYG | 1.3 ± 0.096
TYKIIRYFLNLICSFRGPMP | inactive
LSSETWRRLQIVSIHYGLVV | inactive
SWVHGERLMHDCQTLLLYSW | inactive
MAAFVCSFEFSLGSTCSMGG | inactive
PHFQTFRDYVLCGISFSYCE | 1.46 ± 0.1
CSYRRLIFILCD | inactive
VRITSMPTFWRIEPGYLERV | inactive
MYMIWSWCVQMLVNLNHAMA | inactive
SSFLFVKLLIMNRLVQKIYA | inactive
LNFDNRNFFGDMSAESATPF | inactive
RSTWEQ | inactive
SYMVSLRIVLFFDYR | inactive
KWYIMCLVNILVEVIIFNYF | inactive
